Data published in FireProtDB (doi:10.1021/acs.biochem.6b01187).

Settings: Equus caballus, CD; for denaturant m value / denaturant midpoint (higher = more stable) / unfolding free energy: 22 °C, GdnHCl; for Tm / change of melting temperature, mutant - wild type (higher = more stable) / unfolding enthalpy (calorimetric): Thermal, transition: 2, reversible: yes (>83%)
[1] = pH 4.5, sodium acetate buffer 10 mM, NaCl 100 mM, structure 1HRC
[2] = pH 7.4, sodium phosphate buffer 100 mM, structure 1HRC
[3] = pH 4.5, sodium acetate buffer 10 mM, NaCl 100 mM
[4] = pH 7.4, sodium phosphate buffer 100 mM

Sequence of Cytochrome c T50V, P00004 (P00004 whole entry T50V): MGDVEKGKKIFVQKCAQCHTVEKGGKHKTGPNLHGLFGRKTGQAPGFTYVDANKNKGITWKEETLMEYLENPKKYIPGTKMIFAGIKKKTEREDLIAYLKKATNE
Sequence of Cytochrome c wild type, P00004 (P00004 whole entry): as the sequence (P00004 whole entry T50V) above, with V50T counted along it
Sequence of Cytochrome c Y68R|M81A, P00004 Y68R M81A (P00004 whole entry Y68R/M81A): as the sequence (P00004 whole entry T50V) above, with V50T, Y68R, M81A counted along it
Sequence of Cytochrome c M81A, P00004 (P00004 whole entry M81A): as the sequence (P00004 whole entry T50V) above, with V50T, M81A counted along it

Substance	denaturant m value [1]	denaturant midpoint (higher = more stable) [1]	unfolding free energy [1]	Tm [1]	change of melting temperature, mutant - wild type (higher = more stable) [1]	unfolding enthalpy (calorimetric) [1]	denaturant m value [2]	denaturant midpoint (higher = more stable) [2]	unfolding free energy [2]	Tm [2]	change of melting temperature, mutant - wild type (higher = more stable) [2]	unfolding enthalpy (calorimetric) [2]	further results
Cytochrome c M81A, P00004	2.77 kcal/mol/M	2.6 M	2.77 kcal/mol	76 °C	5 °C	83.4 kcal/mol	2.46 kcal/mol/M	2.71 M	6.67 kcal/mol	84 °C	-0.1 °C	85.3 kcal/mol	–
Cytochrome c T50V, P00004	1.6 kcal/mol/M	2.5 M	3.99 kcal/mol	72 °C	1 °C	82.5 kcal/mol	2.68 kcal/mol/M	2.7 M	7.22 kcal/mol	86 °C	1.9 °C	83.9 kcal/mol	–
Cytochrome c Y68R|M81A, P00004 Y68R M81A	2.29 kcal/mol/M	1.4 M	3.2 kcal/mol	55 °C	-16 °C	78.4 kcal/mol	2.46 kcal/mol/M	1.7 M	4.18 kcal/mol	71 °C	-13.1 °C	82.2 kcal/mol	–
Cytochrome c wild type, P00004	–	–	–	–	–	–	–	–	–	–	–	–	denaturant m value [3]: 2.34 kcal/mol/M; denaturant midpoint (higher = more stable) [3]: 2.6 M; unfolding free energy [3]: 6 kcal/mol; Tm [3]: 71 °C; unfolding enthalpy (calorimetric) [3]: 49 kcal/mol; denaturant m value [4]: 2.75 kcal/mol/M; denaturant midpoint (higher = more stable) [4]: 2.7 M; unfolding free energy [4]: 7.43 kcal/mol; Tm [4]: 84.1 °C; unfolding enthalpy (calorimetric) [4]: 86 kcal/mol
